From the DeepSol protein solubility set

Experiment: soluble on expression in E. coli; label from the status in PepcDB or PDB records

Row | Sequence | soluble on expression in E. coli
1 | MSLHTPLEQQEIRYRKGDIIELTITDHAEKDKCFGKTTEGMGVMVSGILAPGDRVSAQIYKVKSRYLEARAIEVLEASPDRVEPVCPVFGSCGGCKWMHVSYEAQLRYKHKKVTDSLEHIGGFESPDVRPVLAAPDALHYRNKVEFSCSNMRYLLQSEIDSDQLAKPKTFALGFHAPGNFEKVLDLDTCYLAKECMNRVLNVLRDFAIERGLEPYAAKAHEGYLRNLMLRYSERHEQLMVNIVTSWYDKALMQALKERLEAAMPEQQMTLLNNVTTRKNTVATGEQEYVISGDGYVTERLGDLDFRISANSFFQTNTRQAETLYDQIIAVGGITPEDTVYDLYCGTGTITLYLARHCKQAIGIEVVESAVKDAEMNAELNGLSNTVFFQADLKNFHAMQEALEPYAKPRIIVTDPPRAGMHPKALDTMLKLQPERIVYVSCNPDNLARDGKEIAARGYRMTSAQPVDMFPQTNHIETVACFERAEGHHHHHH | soluble
2 | MRSLLLLALVSASAYASFDKIKDSIQNPLARGFGDDIAWVKWEDAIETALDTDKPIFLLIHKSWCHACKALKKTFQQSNAKKAFKKLSEHFVMVNTEDDDEPFEEEYRPDGKYIPRLLFLDKNGDLLQEFKNKKAEYKNYAYYYSSPADILNSMKDVLKHFGVDIPEAKRGDKLKPKKPEGKKKEL | not soluble
3 | MGSDKIHHHHHHMFDLNDLFYFVQVVECRGFAPASRKLGIPKSKLSRRIAGLEERLGVSLIHRSTRKFAVTESGRDYYGHCVAMLVEADAAEEAIQRSKSEPQGKVVISCPPAMAAMGINEAIAGFMAAHPKVQVHIESTNRRVDPLIENIDIALRVRFPPLEDDGLVVKTLGHSAQRLVAHPDLAALLPANASFEALARLPSLDVTSSTPEHRWLLENGPGHYVEVRHAPRLVSSDLDAILQAALQGVGVAQLPEILVREALQQGRMVELFDAHRPKCGILHAVFVSRRGLLPAVRGLLDAFESSFTELTHNPESLYCSLHRTNSRIQGD | not soluble
4 | MVYVAITIVRVPGPAFSYHCPDFVRLYIEAMGYSPTIAPARIRVWRNAITEQGFVAVCAIDDSSDNPAAIGEGIVGIGYGFTGRSEHWWDQQIHRGLAEQKCPPVARPYFELAELHVSPRAQGQGIGRSLLHALIKHCGHELILLSTPEVPDEKNAAFHLYRSCGFDDLLRNFMFEGDRRPFAVLQRKAHRN | not soluble
5 | MREINMILYIHIPFCENKCGYCAFNSYENKHGLKEEYTQALCLDLKHALSQTDEPIESVFIGGGTPNTLSVKAFERIFESIYQHASLSLDCEITTEANPELITKAWCQGLKGLGINRLSLGVQSFREDKLLFLERQHSKNIAPAIETILKSGIENISIDLIYNTPLDNENSLKEELKLAKELPINHLSAYALSVEKNTNLEKNAKKPSCAHFDNVVREILEGFSFKQYEVSNYARNYQVKHNLAYWGAKDYLGCGAGAVGCVANERFFAKKLIENYIKDPLQRQVETLNKQDKRLEKLFLGLRCVLGVELSFLDENKVKFLIEENKAFIKNNRLIASDFFMADEMALWLLLEHHHHHH | not soluble
6 | MRGSHHHHHHTDPALRAARLFTLSESKYYLMALDAGTGSIRAVIFDLEGNQIAVGQAEWRHLAVPDVPGSMEFDLNKNWQLACECMRQALHNAGIAPEYIAAVSACSMREGIVLYNNEGAPIWACANVDARAAREVSELKELHNNTFENEVYRATGQTLALSAIPRLLWLAHHRSDIYRQASTITMISDWLAYMLSGELAVDPSNAGTTGLLDLTTRDWKPALLDMAGLRADILSPVKETGTLLGVVSSQAAELCGLKAGTPVVVGGGDVQLGCLGLGVVRPAQTAVLGGTFWQQVVNLAAPVTDPEMNVRVNPHVIPGMVQAESISFFTGLTMRWFRDAFCAEEKLIAERLGIDTYTLLEEMASRVPPGSWGVMPIFSDRMRFKTWYHAAPSFINLSIDPDKCNKATLFRALEENAAIVSACNLQQIADFSNIHPSSLVFAGGGSKGKLWSQILADVSGLPVNIPVVKEATALGCAIAAGVGAGIFSSMAETGERLVRWERTHTPDPEKHELYQDSRDKWQAVYQDQLGLVDHGLTTSLWKAPGLGLCGR | soluble
7 | MAELKLEHIKKTYDNNNTVVKDFNLHITDKEFIVFVGPSGCGKSTTLRMVAGLESITSGDFYIDGERMNDVEPKNRDIAMVFQNYALYPHMTVFENMAFGLKLRKVNKKEIEQKVNEAAEILGLTEYLGRKPKALSGGQRQRVALGRAIVRDAKVFLMDEPLSNLDAKLRVQMRTEILKLHKRLNTTTIYVTHDQTEALTMASRIVVLKDGDIMQVGTPREIYDAPNCIFVAQFIGSPAMNMLNATVEMDGLKVGTHHFKLHNKKFEKLKAAGYLDKEIILGIRAEDIHEEPIFIQTSPETQFESEVVVSELLGSEIMVHSTFQGMELISKLDSRTQVMANDKITLAFDMNKCHFFDEKTGNRIV | not soluble
8 | GPLQVSNARLLFPISMPEDEGVVRLVVNNTDESDLQVAVVSLPSFVSLDDRAFRLQAREPRELNLSLAVPRNMPPGMKDEPLVLEVTSPETGKKAVDSVMVSLPLVDNFPALTAAQTGVMELSTYLDMGQLDGETTKAAIEIRNVGAGPLRLHSVTTRNPALTAVPDRTEIKPGGSTLLRIAVDPQVMKAEGWQSIAADISIICNDPQAPLRRIKVKAEL | soluble
9 | MGKKYEIFLNENEHSLITPKVSFKEILRYYYLYPKNAIPSFKLPFFKPDLSGFSTPHITWLGHSSLFISFKEYKILIDPIFNTHASPISFINKAFKNAPVYNINDFNEIFAVIITHSHFDHLDAKSVKALKDKAKFFITPLKVGNYLKSYGVSEKKIIELDWWSGIEFGDLKIMATPAQHSSSRGDGKNKTLWASFVMEFLSVDKRVFFSADGGYFTHFKKIGEYFGSFDLACLESGQFNIAWPYSHSFPEQILKEAKDLNAKAVMPIHWGRFLAGTHAWNEVVKFLYENLDLPLITPKMGEAYEVGAKLEHHHHHH | soluble
10 | MGSDKIHHHHHHMTTKLDQLTSWLKERKITEVECLISDLTGIARGKISPTNKFIAEKGMRLPESVLLQTVTGDYVEDDIYYDLLDPADIDMVCRPDENAVFLVPWAIEPTAMVIHDTFDKLGNPIELSPRNILKRVLKMYADKGWRPIVAPEMEFYLTKRSDDPDYPLQAPVGRSGRQETGRQSFSIDAANEFDPLFEDMYDWCEAQGLDLDTLIHEEGTAQMEINFRHGDALDLADQILVFKRTMREAALKHNVAATFMAKPMTGEPGSAMHLHQSIVDVKTGKNIFSNADGTMSELFLHHIGGLQKFIPEVLPLFAPNVNSFRRFLPDTSAPVNVEWGEENRTVGLRVPDSSPENRRVENRLAGADANPYLALAASLLCGYIGMVEGIKPSAQVKGRGYERRNLRLPLTIEAALERMENCKPLEQYLGSKFISGYVAVKRAEHENFKRVISSWEREFLLLSV | not soluble
11 | MGHHHHHHSHMQWSKEEEAAARKKVKENSAVRVLLEEQVKYEREASKYWDTFYKIHKNKFFKDRNWLLREFPEILPVDQKPEEKARESSWDHVKTSATNRFSRMHCPTVPDEKNHYEKSSGSSEGQSKTESDFSNLDSEKHKKGPMETGLFPGSNATFRILEVGCGAGNSVFPILNTLENSPESFLYCCDFASGAVELVKSHSSYRATQCFAFVHDVCDDGLPYPFPDGILDVILLVFVLSSIHPDRTLFI | not soluble
12 | MHHHHHHSSGVDLGTENLYFQSMAAGGDHGSPDSYRSPLASRYASPEMCFVFSDRYKFRTWRQLWLWLAEAEQTLGLPITDEQIREMKSNLENIDFKMAAEEEKRLRHDVMAHVHTFGHCCPKAAGIIHLGATSCYVGDNTDLIILRNALDLLLPKLARVISRLADFAKERASLPTLGFTHFQPAQLTTVGKRCCLWIQDLCMDLQNLKRVRDDLRFRGVKGTTGTQASFLQLFEGDDHKVEQLDKMVTEKAGFKRAFIITGQTYTRKVDIEVLSVLASLGASVHKICTDIRLLANLKEMEEPFEKQQIGSSAMPYKRNPMRSERCCSLARHLMTLVMDPLQTASVQWFERTLDDSANRRICLAEAFLTADTILNTLQNISEGLVVYPKVIERRIRQELPFMATENIIMAMVKAGGSRQDCHEKIRVLSQQAASVVKQEGGDNDLIERIQVDAYFSPIHSQLDHLLDPSSFTGRASQQVQRFLEEEVYPLLKPYESVMKVKAE | soluble
13 | VNQQLNSATKLFSVKLGATRVIYHAGTAGATLSVSNPQNYPILVQSSVKAADKSSPAPFLVMPPLFRLEANQQSQLRIVRTGGDMPTDRETLQWVCIKAVPPENEPSDTQAKGATLDLNLSINACDKLIFRPDAVKGTPEDVAGNLRWVETGNKLKVENPTPFYMNLASVTVGGKPITGLEYVPPFADKTLNMPGSAHGDIEWRVITDFGGESHPFHYVLK | soluble
